The results in this text go back to patent publication US20090208977A1.

Experiment [1] deals with human BRS3 (ENSG00000102239) (human) (UniProt P32247). Briefly: flow cytometry, live human sperm; antibody not named (SC33404 is the only BRS3 antibody that bound). On the technique in general: In flow cytometry, cells or beads pass a laser one at a time.
Experiment [2] addresses human FMR1NB (ENSG00000176988) (human) (UniProt Q8N0W7). Kind of experiment: flow cytometry, live human sperm; antibody not named (only one FMR1NB antibody was tried).
Chain of UniProt Q8N0W7 (Q8N0W7 whole entry): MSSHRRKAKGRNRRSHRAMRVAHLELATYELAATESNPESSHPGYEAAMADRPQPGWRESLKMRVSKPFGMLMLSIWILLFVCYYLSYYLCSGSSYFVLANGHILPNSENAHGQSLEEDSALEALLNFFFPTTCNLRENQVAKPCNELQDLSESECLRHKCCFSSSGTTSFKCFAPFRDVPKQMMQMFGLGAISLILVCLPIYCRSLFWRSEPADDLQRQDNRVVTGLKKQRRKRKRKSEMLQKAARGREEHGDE

Chain of UniProt P32247 (P32247 whole entry): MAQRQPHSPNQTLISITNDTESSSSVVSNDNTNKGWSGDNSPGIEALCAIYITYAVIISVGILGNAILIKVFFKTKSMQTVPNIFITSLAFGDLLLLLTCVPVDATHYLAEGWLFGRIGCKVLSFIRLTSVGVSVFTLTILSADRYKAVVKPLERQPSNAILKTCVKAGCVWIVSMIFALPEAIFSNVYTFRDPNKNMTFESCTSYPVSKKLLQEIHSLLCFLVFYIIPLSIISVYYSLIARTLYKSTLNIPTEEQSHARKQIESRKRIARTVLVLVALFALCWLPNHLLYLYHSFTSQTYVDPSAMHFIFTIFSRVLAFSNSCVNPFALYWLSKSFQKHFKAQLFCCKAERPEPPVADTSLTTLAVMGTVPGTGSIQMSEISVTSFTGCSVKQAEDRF

As for “BRS-3 (N-14), Santa Cruz Biotechnology SC-33404 (antibody)”, the Sperm cells showing specific binding (%) in experiment [1] was 10.7%.

In turn, “FMR1NB antibody, Proteintech Group 11069-2-AP” registered a Sperm cells showing specific binding (%) in experiment [2] of 29.7%.
